Assay results: the DeepSol protein solubility set

assay: soluble on expression in E. coli; label from the status in PepcDB or PDB records

Row | Sequence | soluble on expression in E. coli
1 | MGSDKIHHHHHHDSKQSQDLIVKTAQAVSASGIKTTEFPFIAQPFRTSELSFRVGGPIDRLDVYAGNHYKQGSIIAEIDPRDFHIRKERAEAIYHQAKAEFERIEKLYEKNNVSASTYEKTKADYTTAKTAFDTASNELGDTRLTAPFDGYVGEVYIEKYQDVKPAQPVISFIDINRLKIEIYVTQNIAFASHPTDSVRIYFDAQPDKYYKAQIVEVSKGTTRNNLSYLLTAVLPNKEGKLLAGMSGKAIFDAPGTTDLTGVSIPQTALCYRPSEGEYVWVIDTNTRQVNRRTVKKGNLLPGGYVTITEGLRASETVATSGLRFLSDGMKVEISTKTNSL | not soluble
2 | MGSDKIHHHHHHDSLTESSSNTFWQTPDDALMALASCYDALQSNQLYNSDQYSLGPLYMDCISDNGGHFNWSGWMEGYDMAMGIHTPSSSIIGSYWKDCYEVISRCNVLIANIDRVDMDASQKAIYQAEAKTIRALMYINLTMTYQDVPFLTAPLTIDEAECEKTDRAAIVAHVMTDLQDAAEVLPQNASSRGHITKGAALSLLGRVALYNEKWDDAIAAYKQVQGLGYSLDPSYAKLFTQSGETSPEIIFAVRYEGPGMSEGAAFNAHWNTPLEAMNGTIDLADAYYCKDGKPTTDTKIAELNGGGGLDVSKPNPAHFENRDPRLYSTLFVPGMLWNGKGGIDTSASNPYANVYGGAAASLSTVYVYKYFDPTDTSNSWDNGQDFYVVRYAEVLLSLAEAMVQKGGYVYSDVTALVNEVRQRADVNMPTVEEVEGTSLSKDELLEVIKHERRVELAFEGLRLFDLYRWKELDKAVANIENERTMYGLAYEARKFNGERDYVWPLPTAELDTNKKLVQHDLWK | not soluble
3 | MGSDKIHHHHHHEDEKSPVMELQKASAFEPFSQSDFTFNDENAAAEFPEIKWTAADYGVKAVVNYDVTLTNDANAKTVLLGETGTTSLKFTNGQMNTMMAKVGAYPGQTYNFTITLTSKAYDMTADPASNSITFKATLFDPNAVDWKFAYVAVGYPDWDYTNAYLLGDPDGDGVYQGYANFDADGVSYAIIDGSDLTKILAKDQTAAKKGFYGIKVDAEGKVEQTEPLVWGVVGDATSGGWDKDTQMDYDATTRLWTVTTSLLDKEFKFRSNNNWDSDNYGAVSGKESELEGELVAGPNNFKVLKASPYVITMNLTNAGKYSYSMVETTIELSSAEMALPGSYQGWDATKDDCYKVQSAARDFIYTGTFYFDADTKFKFWDAGVWIGMMGPISWDEAKNIGTFVLMPSDGDNIKIETAGYYRVGADMKKLTASLTKTGWEIIGDATPGGWDKGTVMNYDPATKLWSVDVTLVAGEMKFRWDGAWTVNLGGSLGALTQDGANMKVTAGAYTIVLNPDAKTATMTKK | not soluble
4 | MGSDKIHHHHHHENEYITNIDRTFGTRISYEISKRYGELGLEGSRSITIGLKGHAGQSFCAFLAKGVSVTLEGDANDYVGKCLSGGKIVIFPPKAASYKSEENSVIGNVALYGATSGDCWFRGVAGERFAVRNSGANVIVEAVGDHGCEYMTGGRVIVLGSIGRNFAAAMSGGIAYLFAQEDNFSRLINAATVDLDDASTEDLIFVKAK | not soluble
5 | MGSDKIHHHHHHENLYFQGMIESIQELLQKEAQAVLNIPVTDAYEKAVELIVEQIHRKKGKLVTSGMGKAGQIAMNIATTFCSTGIPSVFLHPSEAQHGDLGILQENDLLLLISNSGKTREIVELTQLAHNLNPGLKFIVITGNPDSPLASESDVCLSTGHPAEVCTLGMTPTTSTTVMTVIGDILVVQTMKRTEFTIEEYSKRHHGGYLGEKSRKLCVK | soluble
6 | MGSDKIHHHHHHENLYFQGMTKAIQSSVQVGELATGQALTVPIYSFMGSENSAPSVYIQANVHGAEVQGNAVIYQLMTLLEGYQVLGDITLAPLANPLGINQKSGEFTLGRFDPITGVNWNREYFDHNVDIQNWYAEHQHLTNSELFCAYRSMLVETCQARLTHSFGISTGHRLAVNLQAMAHQADIVLDLHTGPKSCKHLYCPEYDIDAARFFSIPYTLIIPNSFGGAMDEATFCPWWQLTEYATSQGREFSVPVSAFTLELASQERIDLADALEDAKGILAYLSHRGVIAEKVNPASMERFGCYLKDYKKFHAPKAGLIEYCASVGEPLTAGKPLVNILRIDLYGSEQAYQAISLPMDCVPILHFASASVLQGTELYKVMTNVFPLQPS | soluble
7 | MGSDKIHHHHHHENLYFQGMWEIYDAMINGIPEDFLVDELVCGTTHSVIRSGNGVGLGPNRPFETRMPMLTQNLLGLPLRVAAGCVKSWNYVEASIGLAAINAYYNNPQVAREHGVIFSDAKRVEDRMNDPFIMSQNEVKGKKVGVVGHFPHLESLLEPICDLSILEWSPEEGDYPLPASEFILPECDYVYITCASVVDKTLPRLLELSRNARRITLVGPGTPLAPVLFEHGLQELSGFMVKDNARAFRIVAGAEKVKIYSAGQKVTIKK | soluble
8 | MGSDKIHHHHHHETRECIYYNANWELERTNQSGLERCEGEQDKRLHCYASWRNSSGTIELVKKGCWLDDFNCYDRQECVATEENPQVYFCCCEGNFCNERFTHLPEPG | soluble
9 | MGSDKIHHHHHHFKLLAADGDSLLVGARNAVYNLSLSTLSVNHKIDWKPPAEHIEECIMKGKSKTDCQNYIRVLARKSAGVSLVCGTHAFSPKCREYTVTEFGIRNTRQFDGQGISPYDPKHNSSALYVPGTNQLFVATVTDFVGNDALIYRKTIDETPSSKSAANIRTQSYDARVLNAPNFVATFAYKEHVYFWFREIASEAIDNNEEPQIYARVARVCKNDKGGARPANERWTSYLKARLNCSLPSGSSPFYFNELKAVSDPIDAGNNNHVVYTVFSTPDSDVRMSAVCKFSMKKIREEFDNGTFKHQNNAQSMWMAFNRNEVPKPRPGSCSPDSTKLPENTVSFILHHPLLHRPIPSVAAPLLVEGADRADLTQITVLPRVRAVGGHNYDILFIGTSDGKVLKVVEVDGNATVIQSATVFQRGVPIVNLLTTKES | not soluble
10 | MGSDKIHHHHHHGKPLRKVDLLADIRPDVEEEVCDSDTIVLPPPVKPIFVDTCKTGITCIEDYSDSTMRGMKHFYEALSKVKTMKRPVRIAYFGDSFIEADIFTADLREMLQQEFGGCGVGYVPVTSSISGYRPTVRHTFGGWSSHSSNDSVGFDKMQQDISGHYFFPREGAYVQLKGQSKYASRLDTCEVSTFYFLNKGFAAVRSKVNNAAEGELHEEVGTGGVQAVSVRGRIGQVRWSVEQADSVTFYGVAMDGRQGISLDNFSVRGSSGLHLRSIPLHTLCDFQRLRPYDLIVVQYGLNVATERGVKYDGYKKGMLSVIEHLKTAFPETSILLVSVGDREYKNENGDLRTMPGVKNLIRYQQSIAADSHIAFWNMYEAMGGQGSIVDMIGQKMANLDYTHINFKGGKHLAGILFETLMYGKEQYERRKAYEEE | not soluble
11 | MGSDKIHHHHHHGNSSTGLSSGGSNVSLEVLKHRPLVEKYAKESDILEYVPILLAIIQVESGGTMEDVMQSSESAGFPPNSLSTEASIKQGCIYFASLVNRAKDIGCDQESIIQSYNYGGGYLDYVGKNGKKYSFALAESFSKEKSDGEKVTYSNPIAIKENGGWRYNYGNMFYVMLVKQYLTTTKFDDKTVQGIFDEAFKYEGTAYVFGGSSPATGFDCSGLTQWCYAKVGLQLPRVAQDQYDAMSHIELKDAKPGDLIFFHSTYDAGTYVTHVGIYAGDNRMFHAGDPVGWTNLTETYWQQHIIGAGRYKNRKGDR | not soluble
12 | MGSDKIHHHHHHGSITVILGPMFSGKTTELLRLHDRQIIAKRTCVLVKYAGDTRYDADLVATHSKMTGQGRTVKAHRLSEVQSQIFNDEVQVVSIDEGQFFEDLAETCEELAQRGKVVCVAALNGTFERKPFPQISLLLPYANEIKQVTAVCVECGSQANFSFRSTLDKKVEVIGGSDTYTALCRECY | not soluble
13 | MGSDKIHHHHHHHPHSFVDLKNKVLVDGTQLKGFQMEWTMDEIASAELIYEVKNNPDHQAAKKSITAEMEQTAIENHYFSYLYNAKDQPLKFSVKPSNTTFRIAGNRVVFYITFYLSKPYDLKNNAIRFYTYEPSYYMAMEYNNQQDLSINSSECKAKLTQPNVNNSLRLYASSLDKNQKPNMPDGEDNSLGAQFAQTVEVVCE | not soluble
14 | MGSDKIHHHHHHIASQENCSNKEDLTNRAEDFQSDFVKTMDIIKEHHVAYGNSNARNMLEVREQILQEKGFDDIYVQKKHAENCTAIAELPRVLAKIDELKNTGDEKTVLEYVSRGLLAGNVFDWGAKEVVKMMNSESGLTFQTAIDHVENRPWLFDGFDSFYKKHKEYKSVLIFVDNSGFDYILGIIPFARELLRNGSRVIICANTSPALNDLTYREMVELAPELKNADSDLAKFIDSNQMMFVQTGQESPCMDARRVHQDLNETVKKFNTDLVVIEGMGRALHTNFNVQFKCDSLKAAVIKTQWLADRLGGKMFSVVFKHE | not soluble
15 | MGSDKIHHHHHHIETYNPAEVTFPENVAKVLIVNNAVPQPEDAGYEYTLQGERQDTCKAKADSALFDACRTLGEAIVEASYFNDVLLYHDAVRKDNQAFLDTKLTQGQVASLCDETGADAVISIDRLLFDMKKSVGTLGEGYVMGMIDVQMAGVIRSYVPDREAPLATVHMKDSIYWAESADYMPILDKVLPSPENALRGAGKYFGAKVYANFVPHWEKETRWYFTGMGSRWKEASAYAANEKWDMAEDRWSGLYRGTENWKSRAKAASNLALCHEMRGALKEAYEWAHKSYDLFKRNNGDNDKSTKLLELYVQALAERIRSDKKLNVQFGED | not soluble
16 | MGSDKIHHHHHHKDEDPVLPLEGAKLSVAVKASGTATKAYNPNDVNELEGEAYINNLAVVVFNETGTELLGYKWEALSGAEHSAIIADVPTTKAVRARIIVLANVPRDLLSTVSTYDEFQTRLVDLSSQSQTNLTMSSQVIVTKSALSEEDNYLGYTDLGDQNVDGISDPILLTRVAARIDLVNISTRFAGTPFAGREVRIDAVGIYNMKTKSYYFSEADWGETEAPDAVRNSEDTSFEDLLVNDGTSISNTPFVHYVMENMKSDDHTMIAVKATLRGNSSYQDHTKIFTAVINAGGLQNGYDHNFIRRNYVYRLRIYFDGESFDNIPVTPDPGPGPDPEPEVDTNLNIAVQVVGWGPVMQHPVID | not soluble
17 | MGSDKIHHHHHHKQTVSSESTEELDDASKVINYYHMSLAVLRHVANAKDINAVLGYMEQTGKVPEVDPIAPPEIAARDTAELLDPGDYFNPEVRQNLKQNYAGLFNVRTQFYDNFNKFLAYKKSKDTAKTAQLLDENYKLSVELSEYKQVIFDILSPLTEQAESELLADEPLKDQIMAMRKMSGTVQSIMNLYSRKHAMDGVRIDLKMAELEKELKAAEKIPAVTGYDEELKNFQSFLSTVKSFMNDMQKARSKGAYSDKEYQAMSEAYEYGLSVI | not soluble
18 | MGSDKIHHHHHHKRQVSGDESYLDAAPLAELHAPAGMILPITTGDYVIPVTKGSGAVGKALDIRPPAQPLALVSGARTQFSGDTATLLVENGRSSTLWPQVVSVIQAKNYPIEKRDDASQTLTTDWVNWNRLDEDEQYRGRYQISVKPQGYQQAVTVKLVNLEQAGKPVADAASLQRYSTEMMNVISAGLDKTATDAANAAQNRSAATMDVQSAADDTGLPMLVVRGPFNLVWQRLPAALEKVGMKVTDSTRSQGSMAVTYKPLSDSDWRDLGASDPGLASGDYKLQVGDLDNRSSLQFIDPKGHTLTQSQNDALVAVFQAAFNK | not soluble
19 | MGSDKIHHHHHHKSISNKLVVFDDKEQVIQYSSNSIPVKIELYSKRWGKTSITYNNSLKEFWDIVESMPRSKNFYGSTKIENSPNDIIGTIFYLNGKRSTMCLNHNLKIDDSYYGGERGYAYINRLRNYINDIMCTPSMLASIVNDKNKVIIEDKLSEASKCGSNDKTLIKNEITKLRRISNNEKLQKTITSKGKLNYHIKIYMENSNGSNINLSKIKQDNYDIISISVYENNCAVIRDYGNDTVDTFCMEGNLTNVCKSILKR | not soluble
